The target of this experiment is FLAG-METTL5-G61D (human) (UniProt Q9NRN9). The experiment can be described thus: co-IP; anti-FLAG M2 beads in clarified lysate of transfected HeLa cells, 1 h at 4 °C; 50 mM Tris pH 7.4, 150 mM NaCl, 10% glycerol, 1.5 mM MgCl2, 0.5 mM EDTA, 0.2% NP-40, 1 mM DTT; three washes; Western blot with anti-FLAG and anti-TRMT112.
Chain of UniProt Q9NRN9 (Q9NRN9 whole entry G61D): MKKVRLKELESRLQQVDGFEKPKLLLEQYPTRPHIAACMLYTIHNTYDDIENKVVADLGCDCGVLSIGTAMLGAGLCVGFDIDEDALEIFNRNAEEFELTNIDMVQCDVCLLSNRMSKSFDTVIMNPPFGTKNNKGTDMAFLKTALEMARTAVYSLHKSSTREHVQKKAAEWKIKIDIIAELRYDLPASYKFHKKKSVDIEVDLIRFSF

B1: TRMT112 (natural protein)
chain: MKLLTHNLLSSHVRGVGSRGFPLRLQATEVRICPVEFNPNFVARMIPKVEWSAFLEAADNLRLIQVPKGPVEGYEENEEFLRTMHHLLLEVEVIEGTLQCPESGRMFPISRGIPNMLLSEEETES
B1: the TRMT112 bound relative to that bound to FLAG-METTL5-WT fell in the range of 5 to 15%.

Source of the values: PMC8857481.
